From patent US20100204147A1, “Methods For Delivering Thymosin Beta 4, Analogues, Isoforms and Other Derivatives” (REGENERX BIOPHARMACEUTICALS, INC., priority 2003, published 2010)

What was measured:
[1] = biological target: T1, fibrin (Homo sapiens, UniProt P02671); assay: Western blot time course of factor XIIIa-mediated incorporation into fibrin; format: biochemical; details: mixture of thrombin, factor XIII, thymosin β4 and fibrin; immunoblotting
T1 construct: purchased Enzyme Research Laboratories (South Bend, Ind.); host or cells: fibrin generated in the well or tube from the purchased fibrinogen with bovine thrombin
T1 sequence (P02671 36-629): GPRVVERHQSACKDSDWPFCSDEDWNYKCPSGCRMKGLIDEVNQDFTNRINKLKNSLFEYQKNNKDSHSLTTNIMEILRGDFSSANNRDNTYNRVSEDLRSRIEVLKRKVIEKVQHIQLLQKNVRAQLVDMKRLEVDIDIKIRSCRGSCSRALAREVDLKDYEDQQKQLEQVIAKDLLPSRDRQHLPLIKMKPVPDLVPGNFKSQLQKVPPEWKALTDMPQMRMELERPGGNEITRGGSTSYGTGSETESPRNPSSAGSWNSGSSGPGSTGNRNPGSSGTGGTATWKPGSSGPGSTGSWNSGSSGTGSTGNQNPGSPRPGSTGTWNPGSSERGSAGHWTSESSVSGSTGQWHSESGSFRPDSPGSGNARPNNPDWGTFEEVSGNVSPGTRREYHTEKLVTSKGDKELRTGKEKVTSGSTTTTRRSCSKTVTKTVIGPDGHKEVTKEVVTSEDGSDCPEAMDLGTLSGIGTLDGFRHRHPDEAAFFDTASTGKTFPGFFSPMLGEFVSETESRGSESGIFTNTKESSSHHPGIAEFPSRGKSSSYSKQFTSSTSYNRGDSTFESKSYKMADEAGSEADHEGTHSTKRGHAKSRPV
T1 sequence (P02675 45-491 partner): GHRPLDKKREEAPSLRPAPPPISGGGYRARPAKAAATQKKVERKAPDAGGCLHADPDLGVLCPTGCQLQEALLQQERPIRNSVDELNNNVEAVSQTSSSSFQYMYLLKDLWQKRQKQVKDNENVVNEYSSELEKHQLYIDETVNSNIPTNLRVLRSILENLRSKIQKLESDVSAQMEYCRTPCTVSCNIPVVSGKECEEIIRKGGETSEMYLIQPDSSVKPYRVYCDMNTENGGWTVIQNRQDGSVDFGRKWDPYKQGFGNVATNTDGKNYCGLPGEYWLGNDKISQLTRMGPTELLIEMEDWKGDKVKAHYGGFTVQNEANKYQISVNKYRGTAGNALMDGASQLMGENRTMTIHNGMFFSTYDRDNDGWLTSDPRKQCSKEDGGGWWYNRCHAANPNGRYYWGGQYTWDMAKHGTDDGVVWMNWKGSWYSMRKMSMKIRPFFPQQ
T1 sequence (P02679 27-437 isoform P02679-2 partner): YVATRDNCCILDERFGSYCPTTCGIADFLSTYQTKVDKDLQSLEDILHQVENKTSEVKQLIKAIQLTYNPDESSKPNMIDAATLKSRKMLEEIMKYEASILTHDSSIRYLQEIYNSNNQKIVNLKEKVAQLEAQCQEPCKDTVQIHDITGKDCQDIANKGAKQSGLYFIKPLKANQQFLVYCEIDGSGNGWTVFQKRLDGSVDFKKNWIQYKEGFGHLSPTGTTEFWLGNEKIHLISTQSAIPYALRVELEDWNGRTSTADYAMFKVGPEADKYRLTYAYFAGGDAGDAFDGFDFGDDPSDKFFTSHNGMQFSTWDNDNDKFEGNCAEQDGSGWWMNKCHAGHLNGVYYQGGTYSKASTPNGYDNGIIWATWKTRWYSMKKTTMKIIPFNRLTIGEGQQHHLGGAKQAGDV
Description: Reactions of incorporation of FITC-labeled and unlabeled thymosin β4 into fibrinogen and fibrin were performed in Eppendorf tubes containing a mixture of fibrinogen at 3 mg/mL (9 μM) and thymosin β4 or FITC-labeled thymosin β4 at […] (30 μM) in 100 μL TBS with 2.5 mM CaCl2. The reactions were initiated by addition of FXIIIa(Ca) or FXIIIa(Thr) to final concentration of 30 μg/mL. The final concentration of thrombin in the FXIIIa(Thr)-containing mixtures was made at 2.5 NIH u/mL, sufficient to rapidly form fibrin clot which was observed visually. The reactions with FITC-labeled thymosin β4 lasted for 4 hours at 37° C. in the dark and were stopped by heat inactiviation of the enzymes in boiling water for 5 min during fibrinogen and fibrin denatured and precipitated. The pellets were centrifuged and washed 3 times in TBS and then solubilized. The amounts of fibrin(ogen) and FITC-labeled thymosin β4 in the solubilized pellet were determined spectrophotomertrically using absorption molar coefficients E280,1%=15.0 and ε495=72,000 M^−1cm^−1, respectively. […]
Detection of thymosin β4 incorporated into fibrin(ogen) and its fragments was performed as follows. […] The membrane was blocked with a casein blocker for 1 hour and thymosin β4 was detected by the reaction with rabbit anti-thymosin β4 serum and peroxidase-conjugated anti-rabbit IgG. […]

[2] = biological target: T1, fibrin; assay: Factor XIIIa-mediated incorporation of FITC-labeled thymosin β4 into fibrin (spectrophotometric); format: biochemical
Description: Reactions of incorporation of FITC-labeled and unlabeled thymosin β4 into fibrinogen and fibrin were performed in Eppendorf tubes containing a mixture of fibrinogen at 3 mg/mL (9 μM) and thymosin β4 or FITC-labeled thymosin β4 at […] (30 μM) in 100 μL TBS with 2.5 mM CaCl2. The reactions were initiated by addition of FXIIIa(Ca) or FXIIIa(Thr) to final concentration of 30 μg/mL. The final concentration of thrombin in the FXIIIa(Thr)-containing mixtures was made at 2.5 NIH u/mL, sufficient to rapidly form fibrin clot which was observed visually. The reactions with FITC-labeled thymosin β4 lasted for 4 hours at 37° C. in the dark and were stopped by heat inactiviation of the enzymes in boiling water for 5 min during fibrinogen and fibrin denatured and precipitated. The pellets were centrifuged and washed 3 times in TBS and then solubilized. The amounts of fibrin(ogen) and FITC-labeled thymosin β4 in the solubilized pellet were determined spectrophotomertrically using absorption molar coefficients E280,1%=15.0 and ε495=72,000 M^−1cm^−1, respectively. To prepare samples with unlabeled thymosin β4 for analysis by SDS-PAGE and Western blot the reaction mixtures at the indicated time were heat-inactivated as above and solubilized by addition of sample buffer (Invitrogen) containing SDS and reducing agent.

time at which the amount of incorporated (cross-linked) thymosin β4 reaches saturation [1]: 4 h
degree of incorporation into fibrin ([2]; fibrinogen 9 μM, thymosin β4 30 μM, factor XIIIa with thrombin, 4 hours, 37° C.): 0.4 moles per mole
molar incorporation ratio of thymosin β4 to fibrin ([2]; physiological concentrations of fibrin(ogen) and factor XIII): 0.4
Substance: thymosin β4
